# Results published in US20260216242A1, “ALPP-SPECIFIC VARIANT ANTIGEN BINDING MOLECULES” (ALMAC DISCOVERY LIMITED, priority 2022, published 2026).
# Changes are numbered by the printed parent chain.
# T1: ALPL expressed on the surface of CHO cells (CHO-ALPL) (Homo sapiens, UniProt P05186)
# T1 construct: expressed in transfected cells
# T1 sequence (P05186 18-501 limits assumed): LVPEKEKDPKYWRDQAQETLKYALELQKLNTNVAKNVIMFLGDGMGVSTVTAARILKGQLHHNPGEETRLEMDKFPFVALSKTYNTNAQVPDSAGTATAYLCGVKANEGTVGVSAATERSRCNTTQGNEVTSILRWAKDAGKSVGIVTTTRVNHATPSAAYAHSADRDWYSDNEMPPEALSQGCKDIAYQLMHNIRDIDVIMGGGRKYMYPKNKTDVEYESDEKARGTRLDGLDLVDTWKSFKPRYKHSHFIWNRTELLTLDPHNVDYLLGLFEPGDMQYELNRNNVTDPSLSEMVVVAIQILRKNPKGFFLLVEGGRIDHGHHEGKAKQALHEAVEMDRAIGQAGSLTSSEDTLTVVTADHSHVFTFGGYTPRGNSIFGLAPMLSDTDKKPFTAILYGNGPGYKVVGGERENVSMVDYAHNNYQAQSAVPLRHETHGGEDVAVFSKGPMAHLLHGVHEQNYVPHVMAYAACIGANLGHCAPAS
# B1: C07: ALPP/ALPPL2 targeting VHH domain, SEQ ID NO: 25 (protein)
# VHH: QVQLVESGGGLVQAGESLRLACAASGTIFSGNAVGWYRQAPEKQREWVSSITDYGDTDYAEAVKGRFTISRDNAKNTVYLQMNSLKPEDTAVYYCYVYQRGESEEYWGQGTQVTVSS
# B2: E06: ALPP/ALPPL2 targeting VHH domain, SEQ ID NO: 30 (protein)
# VHH: QVHLVESGGGLVQAGGSLRLSCAASRRSFSEYAMGWFRQAPGKEREFVAAIGWSGVIEYADSVKGRFTISRDNAKDTVYLQMNSLKPEDTAVYYCAAGLGIRVVSQTPAYWGQGTQVTVSS
# B3: F08: ALPP/ALPPL2 targeting VHH domain, SEQ ID NO: 35 (protein)
# VHH: QVQLVESGGGSVQAGGSLRLSCAASGPSLSNYAMGWFRQAPGKEREFVAGISWGGGRTSYTDSVKGRFTISRDNAKNTVYLQMNNLKPEDTGVYYCAGRYGRGRNVEYEYDYWGQGTQVTVSS
# B4: D10: ALPP targeting VHH domain, SEQ ID NO: 28 (protein)
# VHH: QVQLVESGGGLVQPGGSLRLSCAASGSIFSVNTMGWYRQAPGKQRDLVAVATSGGTIHYADSVKGRFTISRDNAKNTVYLQMNSLKPEDTAVYYCNLVVPYGMIAGDHDYWGQGTKVTVSS
# B5: E10: ALPP/ALPPL2 targeting VHH domain, SEQ ID NO: 31 (protein)
# VHH: QVQLVESGGGLVQAGGSLRLSCAVSGRALSDYNIGWFRQAPGKEREFVARKTWDGSSTRYDDSVKGRFTVSIEDAKNTAYLQMSSLKTEDTAVYYCAAGRYSRARGWEYDYWGQGTQVTVSS
# B6: F05: ALPP/ALPPL2 targeting VHH domain, SEQ ID NO: 34 (protein)
# VHH: B5 VHH with V24A, L29F, S30G, K51R, E73D, D74N, S84N, A104V
# B7: B01: ALPP/ALPPL2 targeting VHH domain, SEQ ID NO: 20 (protein)
# VHH: QVQLVESGGGLVQAGGSLRLSCEVTRSPMPIDTMAWYRQAPGRQRELVAIISRSGSTNYADSVKGRFTISRNDTKSTMYKSTMYLKMNTLELEDTGVYYCNAVGLWNGAEYWGQGTQVTVSS
# B8: A06: ALPP/ALPPL2 targeting VHH domain, SEQ ID NO: 17; tested C-terminally His-tagged (protein)
# VHH: QVHLVESGGGLVQAGGSLRLSCAASGRTFLSMGWFRQAPGKEREFVAAISWTGGSTGYADSVKGRFTISRESDKETMYLQMNSLKPEDTAVYYCAARGDVYYGGDDATRYKYWGQGTQVTVSS
# modifications: C-terminal His tag
# notes: tested C-terminally His-tagged
# B9: A05: ALPP/ALPPL2 targeting VHH domain, SEQ ID NO: 16; tested C-terminally His-tagged (protein)
# VHH: QVQLVESGGGLVQAGASLTLSCAASGFTFNTRSIVWFRQAPGKEREAVSCISKVAGSTYYGDSVQGRFSSSTDNAKNTVSLQMNSLKPEDTAVYTCAASFAPNCYGWSVAANMEYWGEGTMVTVSS
# modifications: C-terminal His tag
# notes: as for B8
# B10: D04: ALPP/ALPPL2 targeting VHH domain, SEQ ID NO: 26 (protein)
# VHH: QVQLVESGGGLVQPGGSLRLSCAASESTFSINVMGWYRQAPGKQRELVATITSGDITNYADSVKGRFTISRDNAENTVYLRTNSLKPEDTAVYYCNARGEYHSGNEYDYWGQGTQVTVSS
# Target: ALPP (Homo sapiens, UniProt P05187)
# Sequence (P05187 with tags, fused parts or gaps): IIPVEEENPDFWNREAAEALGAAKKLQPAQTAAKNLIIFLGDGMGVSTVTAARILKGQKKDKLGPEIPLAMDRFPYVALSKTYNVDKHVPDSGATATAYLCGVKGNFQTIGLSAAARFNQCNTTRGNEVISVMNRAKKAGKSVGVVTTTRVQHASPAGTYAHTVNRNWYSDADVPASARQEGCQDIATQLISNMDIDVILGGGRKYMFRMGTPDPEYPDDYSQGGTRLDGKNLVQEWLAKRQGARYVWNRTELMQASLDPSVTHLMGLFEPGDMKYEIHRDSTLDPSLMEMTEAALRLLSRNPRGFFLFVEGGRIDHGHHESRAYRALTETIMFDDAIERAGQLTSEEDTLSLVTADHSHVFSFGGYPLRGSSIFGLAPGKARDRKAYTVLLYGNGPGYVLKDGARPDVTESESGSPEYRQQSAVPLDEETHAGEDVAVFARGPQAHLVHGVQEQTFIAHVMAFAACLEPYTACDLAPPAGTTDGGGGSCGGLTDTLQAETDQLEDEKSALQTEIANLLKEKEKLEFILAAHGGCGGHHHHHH
# Experiment: Epitope binning by BLI competition assay
# Format: binding
# Details: BLI competition on immobilised ALPP
# Experimental: To determine epitope cross reactivity BLI competition assays were conducted. AR2G sensors were used and ALPP immobilised as above. ALPP sensors were then dipped into a well containing a saturating concentration of the initial binder for ten minutes to get an association curve. The sensor was then dipped into a well containing the same concentration of initial binder plus 20 nM of a secondary binding.
# An increase in the association curve was indicative that the second VHH bound to a distinct epitope from the initial binder. Monomers with identical CDR3s were grouped as likely to be in the same epitope bin and only one from each group used in the epitope binning experiment.
row,Molecule,epitope bin
1,B1,four
2,B2,one
3,B3,one
4,B4,five
5,B5,one
6,B6,one
7,B7,three
8,B8,two
9,B9,one
10,B10,four

# Target: T1, ALPL expressed on the surface of CHO cells (CHO-ALPL)
# Experiment: Cell-surface binding by flow cytometry, CHO-ALPL
# Details: VHH His proteins
# Experimental: C-terminal His tagged VHH proteins were assessed for ALPP, ALPPL2, ALPI and ALPL cell-surface binding by flow cytometry. Binders encompassing different epitope bins were screened on CHO cells stably expressing ALPP, ALPPL2, ALPI or ALPL. High levels of cell-surface proteins expression were confirmed for each of the cell-lines by flow cytometry.
# Cell surface binding of test agents to hALPP isoforms was characterized in four CHO-ALPP isoform stably transfected cell lines (CHO-ALPP, CHO-ALPPL2, CHO-ALPI and CHO-ALPL) and the resulting KDapp values determined. Adherent cells were detached from tissue culture flasks by incubating with 0.1% EDTA/PBS solution at 37° C. for ~10 minutes or until cells detached easily. Cells were re-suspended in ice-cold PBS/2% FCS in 15 ml tubes and centrifuged at 1700 rpm for 5 mins at 4° C. Supernatant was removed and the cell pellet re-suspended in PBS/2% FCS. A cell count was performed using a Chemometec Nucleocounter NC-202 and 2.5×10^5 cells were aliquoted per test sample into a 96 well plate. Cells were incubated with 100 μl of test agents at a range of concentrations, plus controls for 1 hr on ice. The sample plate was centrifuged at 1700 rpm for 5 mins at 4° C. The supernatant was removed, and a wash performed by re-suspending the cell pellets in 0.25 mL of ice-cold PBS/2% FCS using a multichannel pipette. Samples were again centrifuged at 1700 rpm for 5 min at 4° C. Supernatant was removed and two further washes performed as described. After the final wash and centrifugation step, excess liquid was removed by blotting the plate on tissue paper. Binding of VHH (His6 tagged) agents was determined by adding 100 μl of anti-x6His tag Ab (Abcam) per cell pellet sample as appropriate and incubating on ice for 30 mins. Wash steps were performed as described previously. Fitc-anti-mouse antibody (ThermoFisher) was used to detect binding of the VHH (His6 tagged) agents by incubating with the appropriate samples for 30 min on ice in the dark. Wash steps were performed as described previously. All cell pellets were finally re-suspended in […] of ice-cold PBS/2% FCS and left on ice in the dark prior to analysis on a Merck-Millipore Guava EasyCyte HT or Thermo Fisher Attune N×T flow cytometer.
# VHH-hFc proteins were assessed for human ALPP, ALPPL2, ALPI and ALPL cell-surface binding by flow cytometry. Binders were screened on CHO cells stably expressing human ALPP, ALPPL2, ALPI or ALPL.
# Cell surface binding of test agents to hALPP isoforms was characterized in four CHO-ALPP isoform transfectant cell lines (CHO-ALPP, CHO-ALPPL2, CHO-ALPI and CHO-ALPL) and the resulting KDapp values determined. Adherent cells were detached from tissue culture flasks by incubating with 0.1% EDTA/PBS solution at 37° C. for ~10 minutes or until cells detached easily. Cells were re-suspended in ice-cold PBS/2% FCS in 15 ml tubes and centrifuged at 1700 rpm for 5 mins at 4° C. Supernatant was removed and the cell pellet re-suspended in PBS/2% FCS. A cell count was performed using a Chemometec Nucleocounter NC-202 and 2.5×10^5 cells were aliquoted per test sample into a 96 well plate. Cells were incubated with 100 μl of test agents at a range of concentrations, plus controls for 1 hr on ice. The sample plate was centrifuged at 1700 rpm for 5 mins at 4° C. The supernatant was removed, and a wash performed by re-suspending the cell pellets in 0.25 mL of ice-cold PBS/2% FCS using a multichannel pipette. Samples were again centrifuged at 1700 rpm for 5 min at 4° C. Supernatant was removed and two further washes performed as described. After the final wash and centrifugation step, excess liquid was removed by blotting the plate on tissue paper. Binding of VHH-hFc agents was determined by adding 100 μl of Fitc-anti-human Ab (ThermoFisher) and incubating for 30 mins on ice in the dark. Wash steps were performed as described previously. […]
row,Molecule,KDapp CHO-ALPL
1,B1,No binding
2,B2,No binding
3,B3,No binding
4,B4,No binding
5,B5,No binding
6,B6,No binding
7,B7,No binding
8,B8,No binding
9,B9,No binding
10,B10,No binding
